Test system: STAT3
Assay: STAT3 arginine methylation in transfected HEK293 cells
Assay type: cell-based
Conditions: 24 hr after transfection, α-metR immunoblot
Method: Vascular smooth muscle cells (VSMC) were prepared from the thoracic aorta of 12-week-old-male wild-type and PRMT-2^−/− mice by the explant method. Mouse embryo fibroblasts (MEFs) were prepared from 13.5-day wild-type and PRMT-2^−/− embryos. VSMCs and MEFs were cultured in Dulbecco's modified Eagle's medium (DMEM) containing 10% fetal calf serum (FCS) at 37° C. in a humidified atmosphere of 95% air-5% CO2. The integrity of PRMT-2 expression in the established VSMCs and MEFs lines was confirmed by Western and immunofluorescence analysis (data not shown). Quiescent VSMC (3-5th passages) that had been serum-starved for 48 hr were used in the following experiments. HEK293 cells were also grown in DMEM plus 10% FCS and were transiently transfected with FuGENE6 transfection reagent (Roche Applied Science, Indianapolis, Ind.) according to the manufacture's protocol. For each transfection, 2 μg of expression construct for mouse PRMT-2 and 8 μg for mouse STAT3 were used. After 24-48 hr of transfection, cells were used for the following experiments.
Immunoprecipitation of STAT3 was performed as follows. […]

B1: PRMT2: human PRMT-2 polypeptide, SEQ ID NO:2, expressed from pVR1012 vector with HA-tag (protein, listed as Homo sapiens)
chain: MATSGDCPRSESQGEEPAECSEAGLLQEGVQPEEFVAIADYAATDETQLSFLRGEKILILRQTTADWWWGERAGCCGYIPANHVGKHVDEYDPEDTWQDEEYFGSYGTLKLHLEMLADQPRTTKYHSVILQNKESLTDKVILDVGCGTGIISLFCAHYARPRAVYAVEASEMAQHTGQLVLQNGFADIITVYQQKVEDVVLPEKVDVLVSEWMGTCLLFEFMIESILYARDAWLKEDGVIWPTMAALHLVPCSADKDYRSKVLFWDNAYEFNLSALKSLAVKEFFSKPKYNHILKPEDCLSEPCTILQLDMRTVQISDLETLRGELRFDIRKAGTLHGFTAWFSVHFQSLQEGQPPQVLSTGPFHPTTHWKQTLFMMDDPVPVHTGDVVTGSVVLQRNPVWRRHMSVALSWAVTSRQDPTSQKVGEKVFPIWR
modifications: HA tag
Stat3 methylation: endogenous methylated STAT3 was detected
